Target: T1, FLAG-tagged human LMAN1, wild type (pED-FLAG-LMAN1) (human, UniProt P49257 31-510)
T1 sequence (looked up): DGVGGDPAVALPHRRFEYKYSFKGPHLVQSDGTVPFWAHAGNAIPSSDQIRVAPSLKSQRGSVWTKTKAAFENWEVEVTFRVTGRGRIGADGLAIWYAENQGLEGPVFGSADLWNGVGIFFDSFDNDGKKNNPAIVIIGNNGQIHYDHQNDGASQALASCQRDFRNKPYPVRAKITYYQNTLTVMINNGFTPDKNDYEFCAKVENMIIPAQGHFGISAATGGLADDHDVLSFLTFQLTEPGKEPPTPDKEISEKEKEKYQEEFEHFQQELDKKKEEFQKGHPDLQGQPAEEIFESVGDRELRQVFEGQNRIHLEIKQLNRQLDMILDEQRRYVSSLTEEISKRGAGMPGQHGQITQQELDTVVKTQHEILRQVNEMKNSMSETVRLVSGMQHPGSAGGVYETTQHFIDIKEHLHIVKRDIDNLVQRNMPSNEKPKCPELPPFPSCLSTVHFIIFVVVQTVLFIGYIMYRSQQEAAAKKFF
Test: flow cytometry on cells

binding result: binds
B1: Der p 1 (Dermatophagoides pteronyssinus major mite allergen 1), biotinylated (natural protein, UniProt P08176 99-320, looked up)
chain: TNACSINGNAPAEIDLRQMRTVTPIRMQGGCGSCWAFSGVAATESAYLAYRNQSLDLAEQELVDCASQHGCHGDTIPRGIEYIQHNGVVQESYYRYVAREQSCRRPNAQRFGISNYCQIYPPNVNKIREALAQTHSAIAVIIGIKDLDAFRHYDGRTIIQRDNGYQPNYHAVNIVGYSNAQGVDYWIVRNSWDTNWGDNGYGYFAANIDLMMIEEYPYVVIL
modifications: biotinylated
